Laboratory results as given in publication PMC4231769, “The Werner syndrome protein limits the error-prone 8-oxo-dG lesion bypass activity of human DNA polymerase kappa” (Nucleic Acids Research, 2014).

T1: GST-tagged hpol κ^19-526 (human DNA polymerase kappa catalytic core) (human, UniProt Q9UBT6 19-526)
T1 construct: human DNA polymerase kappa (hpol κ), residues 19-526, catalytic core; The pull-downs used GST-tagged hpol κ^19-526; The polymerase assays (functional rows) name hpol κ^19-526 without a GST tag; also called GST-hpol κ; source: recombinant, purified
T1 sequence (looked up): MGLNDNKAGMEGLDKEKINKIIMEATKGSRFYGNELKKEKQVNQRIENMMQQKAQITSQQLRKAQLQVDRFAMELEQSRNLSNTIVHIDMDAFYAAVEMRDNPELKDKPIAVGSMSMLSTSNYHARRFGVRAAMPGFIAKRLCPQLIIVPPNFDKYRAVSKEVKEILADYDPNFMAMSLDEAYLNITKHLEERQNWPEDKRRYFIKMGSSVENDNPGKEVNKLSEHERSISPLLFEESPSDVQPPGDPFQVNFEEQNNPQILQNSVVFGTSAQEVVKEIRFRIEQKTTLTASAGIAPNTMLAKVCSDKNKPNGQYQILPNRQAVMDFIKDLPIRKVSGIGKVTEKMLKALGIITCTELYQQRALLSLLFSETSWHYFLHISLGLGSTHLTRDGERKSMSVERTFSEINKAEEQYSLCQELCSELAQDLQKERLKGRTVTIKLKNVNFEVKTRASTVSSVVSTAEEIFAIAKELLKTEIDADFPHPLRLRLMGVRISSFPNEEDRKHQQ


Target: T1, GST-tagged hpol κ^19-526 (human DNA …)
Test: pull-down; GST-hpol κ^19-526 on glutathione Sepharose beads (~1200 pmol), WRN construct 1 μM (~500 pmol) in 500 μl; 25 mM HEPES pH 7.5, 0.1 M NaCl, 10% glycerol, 5 mM β-ME; 16 h at 4°C; Coomassie-stained SDS-PAGE; specific binding = fraction bound to GST-hpol κ beads divided by fraction bound to GST-coated beads
Settings: both partners purified

| Binder | fold bound to GST-hpol κ beads over GST beads | binding result |
| --- | --- | --- |
| WRN^500-1092 ATPase/RQC construct (domain or fragment, source: E. coli BL21 (DE3) Gold, purified (Ni Sepharose, Glutathione Sepharose, HRV 3C cleavage); not shown: 6xHis, N-terminal, cleaved; GST, N-terminal, cleaved) not shown | ~2 fold | – |
| WRN^1-333 exo domain (domain or fragment, UniProt Q14191 1-333, looked up, also called WRN exo) MSEKKLETTAQQRKCPEWMNVQNKRCAVEERKACVRKSVFEDDLPFLEFTGSIVYSYDASDCSFLSEDISMSLSDGDVVGFDMEWPPLYNRGKLGKVALIQLCVSESKCYLFHVSSMSVFPQGLKMLLENKAVKKAGVGIEGDQWKLLRDFDIKLKNFVELTDVANKKLKCTETWSLNSLVKHLLGKQLLKDKSIRCSNWSKFPLTEDQKLYAATDAYAGFIIYRNLEILDDTVQRFAINKEEEILLSDMNKQLTSISEEVMDLAKHLPHAFSKLENPRRVSILLKDISENLYSLRRMIIGSTNIETELRPSNNLNLLSFEDSTTGGVQQKQI | – | binds |
| WRN^949-1092 RQC domain (domain or fragment, UniProt Q14191 949-1092, looked up, source: E. coli BL21 (DE3) Gold, purified (Ni Sepharose, Glutathione Sepharose, HRV 3C cleavage); not shown: 6xHis, N-terminal, cleaved; GST, N-terminal, cleaved) MDDSEDTSWDFGPQAFKLLSAVDILGEKFGIGLPILFLRGSNSQRLADQYRRHSLFGTGKDQTESWWKAFSRQLITEGFLVEVSRYNKFMKICALTKKGRNWLHKANTESQSLILQANEELCPKKLLLPSSKTVSSGTKEHCYN | ~3 fold | – |
